Measurements: the nanobody polyreactivity screen of Harvey et al. (2022)

Experiment: yeast display, Sf9 membrane polyspecificity reagent, FACS + sequencing; frameworks hold sequencing errors
Method in brief: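 Sorting gates, low and high (top ~1%), were placed on anti-HA fluorescence to track expression and on streptavidin fluorescence to track reagent binding. A clone's polyreactivity label is taken from the gate it came out of. The reagent was 10% biotinylated, detergent-solubilized Sf9 membrane, applied for 1 hour at 4 °C to galactose-induced yeast display cells.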

Sequence | polyreactivity (PSR sort gate)
QVQLVESGGGLVQAGGSLRLSCAASGFIFRDNAMGWYRQAPGKERELVAAISERGGRTYYADSVKGRFTISRDNEKNTVYLQMISLKPEDTAVYYCAAEDIANFYYWGQGTQVTVSS | high polyreactivity
QVQLVESGGGLVQAGGSLRLSCAASGFIFRDNAMGWYRQAPGKERELVASIRSSGGRTYYADSVKGRFTISRDNAKNTVYLQMNSLKPEDTAVYYCARRWYPVTPYARMYYWGQGTQVTVSS | low polyreactivity
QVQLVESGGGLVQAGGSLRLSCAASGFIFRGNAMGWYRQAPGKERELVAAISVRGGRTYYADSVKGRFTISRDNAKNTVYLQMNSLKPEDTAVYYCAADLYNRGRGSSQSYRTGYDYWGQGTQVTVSS | high polyreactivity
QVQLVESGGGLVQAGGSLRLSCAASGFIFRGYAMGWYRQAPGKERELVAAITSSGGDTYYADSVKGRFTISRDNAKNTVYLQMNSLKPEDTAVYYCAKRARRIGDVNMGSWGQGTQVTVSS | low polyreactivity
QVQLVESGGGLVQAGGSLRLSCAASGFIFRGYGMGWYRQAPGKERELVASITTGGRTNYADSVKGRFTISRDNAKNTVYVQMNSLKPEDTAVYYCAATYYLRLRRPYWQGFNYWGQGTQVTVSS | high polyreactivity
QVQLVESGGGLVQAGGSLRLSCAASGFIFRGYTMGWYRQAPGKERELVAAITTTSSTYYADSVKGRFTISRDNAKNTVYLQMNSLKPEDTAVYYCAALFYRYGYLYNYWGQGTQVTVSS | high polyreactivity
QVQLVESGGGLVQAGGSLRLSCAASGFIFRHYAMGWYRQAPGKARELVAVINWSGSSTYYADSVKGRFTISRDNAKNTVYLQMNSLKPEDTAVYYCAVRSLRVDKYGYWGQGTQVTVSS | high polyreactivity
QVQLVESGGGLVQAGGSLRLSCAASGFIFRHYTMGWYRQAPGKERELVAAISSGGSTYYADSVKGRFTISRDNEKNTVYLQMNSLKPEDTAVYYCAARSRIYGLLFYYWGLGTQVTVSS | high polyreactivity
QVQLVESGGGLVQAGGSLRLSCAASGFIFRKYAMGWYRHAPGKETELVAAITRNGGRTYYADSVKGRFTISRDNAKYTVYLQMNSLKPEDTAVFYCNRRGQYTFWPIHEYWGQGTQVTVSS | high polyreactivity
QVQLVESGGGLVQAGGSLRLSCAASGFIFRLYAMGWYRQAPGKERELVAAISSSGGRTTYADSVKGRFTISRDNAKNTVYLQMNSLKPEDTAVYYCNADLWPGNHDGYWGQGTQVTVSS | low polyreactivity
QVQLVESGGGLVQAGGSLRLSCAASGFIFRNYALGWYRQAPGTERELVAAITGRGTSTYYADSVKGRFTISRDNAKNTVYLQMNSLKPEDTAVYYCAARSLALVYRKYDYWGQGTQVTVSS | high polyreactivity
QVQLVESGGGLVQAGGSLRLSCAASGFIFRNYAMGWYRQAPGKERELVASISRGTSTNYADSVKGRFTISRDNAKNTVDLQMNSLKPEDTAVYYCAVGRYPYGSARYGFDYWGQGTQVSVSS | high polyreactivity
QVQLVESGGGLVQAGGSLRLSCAASGFIFRNYAMGWYRQAPGKERELVAVISQRGGSTYYADSVKGRFTSSRDNAKNTVYVQMNSLKPEDTAVYYGAKRKDYNRRGYDYWGQGTQVTVSS | high polyreactivity
QVQLVESGGGLVQAGGSLRLSCAASGFIFRNYVMGWKRPAPGKERELVADITFSGGGTYYADSVKGRFTISRDNAKNTVYLLMNSLIPEDTAVYYCAVYWNWQYDYCGQGTQVTVSS | high polyreactivity
QVQLVESGGGLVQAGGSLRLSCAASGFIFRPYAMGWYRQAPGKERELVAAISYGDGITYYADSVKGRFTISRDNAKNTVYLQMNSLKPEDTAVYDCAVDSHPEEYDYWGQGTQVTVSS | low polyreactivity
QVQLVESGGGLVQAGGSLRLSCAASGFIFRPYAMGWYRQAPGKERELVATISYRGGSTDYADSVKGRFTISRDNAKNTVYLQMNSLKPEDTAVYYCNAGYNRGYYYPVFAFFPYEYWGQGTQVTVSS | low polyreactivity
QVQLVESGGGLVQAGGSLRLSCAASGFIFRQNAMGWYRQAPGKEWELVARITWNGGRTYYADSVKGRFTISRDNAKNTVYLQMHSLKPEDTAVYYCNAVYWGYGKYDYWGQGTQVTVSS | high polyreactivity
QVQLVESGGGLVQAGGSLRLSCAASGFIFRRNAMGWYRQAPGKERELVATIRASGGRTYYADSVKGRFTISRDNAKNTVYLQMNSLKPEDTAVYYCNKRGGYYGSPNYDYWGQGTQVTVSS | high polyreactivity
QVQLVESGGGLVQAGGSLRLSCAASGFIFRRYAMGWYRQAPGKERELVAAINYSGTSTYYADSVKGRFTISRDNAKNTVYLQMNSLKPEDTAVYYCNARVGYPPYDYWGQGTQVTVSS | low polyreactivity
QVQLVESGGGLVQAGGSLRLSCAASGFIFRRYAMGWYRQAPGKERELVAAITWNGGTTYYADSVKGRFTISRDYAKNTVYLQMNRLKPEDTAVYYCAAASRHTGSYRFYYWGQGTQVTVSS | high polyreactivity
QVQLVESGGGLVQAGGSLRLSCAASGFIFRRYAMGWYRQAPGKERELVARISTIGGNTFYADSVKGRFTISRDTAKNTVYLQMNSLKPEDTAVYYCATTGGPSWRKYYSWGQGTQVTVSS | high polyreactivity
QVQLVESGGGLVQAGGSLRLSCAASGFIFRRYAMVWYRQAPGKERELVAAISTGGSTYYADSVKGRFTISRDNAKNTVYLQMNSLKPDDTAVFYCNVKRRTYGQYRMYYWGQGTQVTVSS | low polyreactivity

Sequence | polyreactivity (PSR sort gate)
QVQLVESGGGLVQAGGSLRLSCAASGFIFRRYTMGWYRQAPGKERELVAAISWTGGSTYYADSVKGRFTISRDNAKNTVYLQINRLKPEDTAVYYCNAVLYTPVYDGFDSWGQGTQVTVSS | high polyreactivity
QVQLVESGGGLVQAGGSLRLSCAASGFIFRRYVMGWTRQAPGKERELVAAISNGGGRTYYADSVKGRFTISRDNAKNTVYLQMNSLKPEDTAVYYCAAYPRGPLAPDYDYWGQGTQVTVSS | high polyreactivity
QVQLVESGGGLVQAGGSLRLSCAASGFIFRSYVMGWYRQSPGKERELVAAISKSGGSTYYADSVKGRFTISRDNAKTTVYLQMNSLKPEDTAVYYCAAGTTRTGYRTRYDYWGQGTQVTVSS | high polyreactivity
QVQLVESGGGLVQAGGSLRLSCAASGFIFRVYAMGWYRQAPGKERELVAAITRAGNTYYADSVKGRFTISRDNAMNTVYLQMNSLKPEDTAVYYCNKYHYWASPMNYWGQGTQVTVSS | high polyreactivity
QVQLVESGGGLVQAGGSLRLSCAASGFIFRWNAMGWYRQAPGKERELVAAITSGGGTNYADSVKGRFTISRDNAKNTVYLQMNSLKPEDTAVYYCNASYRRYSNYYKYGYWGQGTQVTVSS | high polyreactivity
QVQLVESGGGLVQAGGSLRLSCAASGFIFRWYAMGWYRQAPGKERELVAAITSGGSTYYADSVKGRFTISRDNAKNTVYLQMNSLKPEDTAVYYCNTYPGSRHWWYDYWGQGTQVTVSS | high polyreactivity
QVQLVESGGGLVQAGGSLRLSCAASGFIFRYNAMGWYRQAPGKERELVAAISSSGTTNYADSVKGRFTISRDNAKNTVYLQMNSLKPEDTAVYYCAADRRDRSPYYYWGQGTQVTVSS | high polyreactivity
QVQLVESGGGLVQAGGSLRLSCAASGFIFRYNPMGRYRHAPGKEREFVAAIDSGGSTYYADSVKGRFTISRDNAKNTVYLQMNSLKPEDTAVYYCNAVHEASYAGVDYWGQGTQVTVSS | low polyreactivity
QVQLVESGGGLVQAGGSLRLSCAASGFIFRYNPMGWYRQAPGKERELVAVITSGGRTYYADSVKGRFTISRDNAKNTVYLQMNSLKPEDTAVYYCNGDSRHRRNYDYWGQGSQVTVSS | high polyreactivity
QVQLVESGGGLVQAGGSLRLSCAASGFIFRYNTMGWYRQAPGKQRELVATITSGGSTYYADSVKGRFTISRDNAKNTFYLQMNSLKPEDTAVYYFAKVRDVLWRFNYWGQGTQVTVSS | high polyreactivity
QVQLVESGGGLVQAGGSLRLSCAASGFIFRYYAMGGYRQAPGKERELVAAISWSGVSTNYADSVKGRFTISRDNAKNTVYLQMNSLTPVDTAVYSCAADGTVRSLGRYYHWGQGTQVTVSS | low polyreactivity
QVQLVESGGGLVQAGGSLRLSCAASGFIFRYYAMGWSRQAPGKERELVAAISTGGSTHYADSVKGRFTISRDNAKNTVYLQMNSLKPEDTAVYYCAAPRYFRVRYGYWGQGTQVTVSS | high polyreactivity
QVQLVESGGGLVQAGGSLRLSCAASGFIFRYYAMGWYRQAPGKEREFVAAISSSGGSTYYADSVKGRFTISRDNAKNTVYLQMNSLKPEDTAVYYCAARSRQDNFYRSYNSWGQGTQVTVSS | high polyreactivity
QVQLVESGGGLVQAGGSLRLSCAASGFIFRYYAMGWYRQAPGKERELFAAISWSGGTTYYADSVKGRFTISRDNAKNTVYLQMNSLKPEDTAVYYCNAGYNGKRRDPVDYWGQGTQVTVSS | low polyreactivity
QVQLVESGGGLVQAGGSLRLSCAASGFIFRYYAMGWYRQAPGKERELVAAISGSGGGTYYADSVKGRFTISRDNAKNTVYLQMNSLIPEDTAVYYCAATWTQPQPGYYPYYYWGQGTQVTVSS | high polyreactivity
QVQLVESGGGLVQAGGSLRLSCAASGFIFRYYAMGWYRQAPGKERELVAAISGSGGGTYYADSVKGRFTISRDNAKNTVYLQMNSLKPEDTAVYYCAAGSTSGYFRYYYWGQGTQVTVSS | high polyreactivity
QVQLVESGGGLVQAGGSLRLSCAASGFIFRYYAMGWYRQAPGKERELVAAISKRGGGTYYADSVKGRFTISRDNAKNTVYLQMNSLKPEDTAVYYCNKDGGYGTGSSREYDSWGQGTQVTVSS | high polyreactivity
QVQLVESGGGLVQAGGSLRLSCAASGFIFRYYAMGWYRQAPGKERELVAAISRSGGSTYYADSVKGRFTISRDNAKNTVYLQMNSLKPEDTAVYYCAALQSRSWYQFNYWGQGTQVTVSS | high polyreactivity
QVQLVESGGGLVQAGGSLRLSCAASGFIFRYYAMGWYRQAPGKERELVAGITRTGGRTYYADSVKGRFTISRDNAKNTVYLQMNSLKPEDTAVYYCAADQYSRWRTKEAFSEYGFDYWGQGTQVTVSS | high polyreactivity
QVQLVESGGGLVQAGGSLRLSCAASGFIFRYYAMGWYRQAPGKERELVASISYSGGTTYYADSVKGRFTISRDNAKNTVYLQMNSLKPEDTAVYYCNVYSRTHYQTYTDDYWGQGTQVTVSS | high polyreactivity
QVQLVESGGGLVQAGGSLRLSCAASGFIFRYYAMGWYTQAPGKERELVAAISYSGGSTYYADSVKGRFTITRDNAKNTVYLQMNSLKPEDTAVYYCAAVTVKSNQYLYYVYPYGMGYWGQGTQVTVSS | high polyreactivity
